Data set [1] relates to T1, N=C(N)NCCC[C@H](NC(=O)[C@H](CCCNC(=N)N)NC(=O)[C@H](CCCNC(=N)N)NC(=O)[C@H](CCCNC(=N)N)NC(=O)[C@H](Cc1ccccc1)NC(=O)[C@H](CO)Nc1ccc([N+](=O)[O-])c2nonc12)C(=O)N[C@@H](CCCCN)C(N)=O.
T1 construct: purchased Panvera
Put plainly: Fluorescent PKC assay (spectrofluorimetry). Type of data set: biochemical, human. The following applies: other: PKCγ; Fluorescence; pH 7.4; 30.0 °C. The protocol: Fluorescent PKC assay-Fluorescence assays were performed in triplicate at 30° C. and initiated by addition of ATP to a 100 μL cuvette containing a 50 μL solution of PKC and peptide substrate 2. Final conditions: 62.5 mM HEPES pH 7.4, 3 mM MgCl2, 0.3 mM CaCl2, 0.1 mM EGTA, 1 mM DTT, 0.5 μg/mL phosphatidylserine, 0.1 μg/mL diacylglycerol, 1 mM ATP, and 13 nM PKC. After the addition of ATP, the solution was gently mixed and the time-dependent change in fluorescent intensity (excitation: 520 nm, emission: […]) continuously monitored with a Photon Technology QM-1 spectrofluorimeter.

Data set [2] has the same test system. Put plainly: Radioactive PKC assay ([γ-32P]ATP). Type of data set: biochemical, human. The following applies: other: PKCγ, 30.0 °C. The procedure:
Radioactive PKC Assay—Radioactive assays were performed in duplicate at 30° C. The final assay volume totaled 40 μl and contained 62.5 mM HEPES (pH 7.4), 0.75 mM CaCl2, 12.5 mM MgCl2, 1 mM dithiothreitol, 0.5 mM EGTA, 7.5 μg/mL phosphatidylserine, 1.6 μg/mL diacylglycerol, and 10 ng of PKC. […] Phosphorylation reactions were initiated by the addition of 10 μL of PKC from a stock solution (20 mM Tris-HCl at pH 7.5, 1 mM dithiothreitol, 1 mM EDTA, and 0.75 mg/mL bovine serum albumin) into 30 μL of assay buffer containing peptide substrate. Reactions were terminated after 5 min by spotting 25 μL aliquots onto phosphocellulose paper disks (2.1 cm in diameter). After 10 s, the disks were immersed in 10% glacial acetic acid and soaked with occasional stirring for at least 1 h. The acetic acid was decanted and the disks were collectively washed with four volumes of 0.5% H3PO4, 1 volume of water, followed by a final acetone rinse. The disks were air dried and then counted in a Beckman LS scintillation counter.

As to PKCγ (Homo sapiens), in data set [1], the Km came out at 30 ± 5 µM, the kcat worked out at 3.17 ± 0.667 s⁻¹ and the kcat/Km came out at 105000 ± 28300 M⁻¹ s⁻¹. Further, in data set [2], the Km is 5.0 ± 1.0 µM, the kcat was determined as 3.5 ± 0.333 s⁻¹ and the kcat/Km was 700000 ± 150000 M⁻¹ s⁻¹.
